B1: VIINNPISL (peptide)
peptide: VIINNPISL
B2: ASKILETSL (peptide)
peptide: ASKILETSL
B3: RPRYSIGL (peptide)
peptide: RPRYSIGL
B4: APEKARAFL (peptide)
peptide: APEKARAFL
B5: MAGPAIHTAPM (peptide)
peptide: MAGPAIHTAPM
B6: APCNGNVAV (peptide)
peptide: APCNGNVAV
B7: APEPRAALL (peptide)
peptide: APEPRAALL
B8: GAYDKARYL (peptide)
peptide: GAYDKARYL
B9: RPFLRLPSL (peptide)
peptide: RPFLRLPSL
B10: IPVSHPVLTF (peptide)
peptide: IPVSHPVLTF
B11: MPATPSLKV (peptide)
peptide: MPATPSLKV
B12: YGPYGSGSGW (peptide)
peptide: YGPYGSGSGW
B13: KPMLPPAAF (peptide)
peptide: KPMLPPAAF
B14: KPRATWTL (peptide)
peptide: KPRATWTL
B15: APLPPPRAL (peptide)
peptide: APLPPPRAL
B16: GPQRTTSV (peptide)
peptide: GPQRTTSV
B17: SAAPPGASL (peptide)
peptide: SAAPPGASL
B18: HVRPQTNCI (peptide)
peptide: HVRPQTNCI
B19: RTKEEINEL (peptide)
peptide: RTKEEINEL
B20: YVVKPLHPF (peptide)
peptide: YVVKPLHPF
B21: SVPVATVEL (peptide)
peptide: SVPVATVEL
B22: APRSPGQVTPRGL (peptide)
peptide: APRSPGQVTPRGL
B23: TRPWSGPYIL (peptide)
peptide: TRPWSGPYIL
B24: SALPTTISF (peptide)
peptide: SALPTTISF
B25: LPLRAVNLNL (peptide)
peptide: LPLRAVNLNL
B26: MPMQDIKMILKM (peptide)
peptide: MPMQDIKMILKM
B27: RIRVTSEVL (peptide)
peptide: RIRVTSEVL
B28: KPQSTISGL (peptide)
peptide: KPQSTISGL
B29: QPISGNPVTL (peptide)
peptide: QPISGNPVTL
B30: LPELPTTLTF (peptide)
peptide: LPELPTTLTF
B31: KEDNPSGHTYTL (peptide)
peptide: KEDNPSGHTYTL
B32: APVGGNVTSSF (peptide)
peptide: APVGGNVTSSF
B33: SPDSAILKL (peptide)
peptide: SPDSAILKL
B34: PEKARAFL (peptide)
peptide: PEKARAFL
B35: REPIMKADML (peptide)
peptide: REPIMKADML
B36: RPRPPKVLGL (peptide)
peptide: RPRPPKVLGL
B37: SPAKQFNIY (peptide)
peptide: SPAKQFNIY
B38: RPFSREMDL (peptide)
peptide: RPFSREMDL
B39: APFAPLHGGGSL (peptide)
peptide: APFAPLHGGGSL
B40: QPANFIVLL (peptide)
peptide: QPANFIVLL
B41: APMAPGRSP (peptide)
peptide: APMAPGRSP
B42: MPAVSGPGPLF (peptide)
peptide: MPAVSGPGPLF
B43: LPLGGLPLLI (peptide)
peptide: LPLGGLPLLI
B44: APSMLRKNQL (peptide)
peptide: APSMLRKNQL
B45: VPFVPRTSV (peptide)
peptide: VPFVPRTSV
B46: VPVSHPVLTL (peptide)
peptide: VPVSHPVLTL
B47: SVLPRALSL (peptide)
peptide: SVLPRALSL
B48: RPEDGRPRL (peptide)
peptide: RPEDGRPRL
B49: MTLPATTLTL (peptide)
peptide: MTLPATTLTL
B50: VPPQNPRPSL (peptide)
peptide: VPPQNPRPSL
B51: GPASDHPSL (peptide)
peptide: GPASDHPSL
B52: VPSCGRSVEGL (peptide)
peptide: VPSCGRSVEGL
B53: TSPLPPTV (peptide)
peptide: TSPLPPTV
B54: YPGFTKRL (peptide)
peptide: YPGFTKRL
B55: LPMSKRQEY (peptide)
peptide: LPMSKRQEY
B56: HPSQESPTL (peptide)
peptide: HPSQESPTL
B57: RPQGAVGGL (peptide)
peptide: RPQGAVGGL
B58: KPAAAGVKKVA (peptide)
peptide: KPAAAGVKKVA
B59: MPMQDIKMI (peptide)
peptide: MPMQDIKMI
B60: YPLQGPGLLSV (peptide)
peptide: YPLQGPGLLSV
B61: SPFSKRIKL (peptide)
peptide: SPFSKRIKL
B62: VPAAPTKAL (peptide)
peptide: VPAAPTKAL
B63: KPRATWTLKL (peptide)
peptide: KPRATWTLKL
B64: FPHMATTAF (peptide)
peptide: FPHMATTAF
B65: QPRPSSEKI (peptide)
peptide: QPRPSSEKI
B66: FVPPSGPSNPM (peptide)
peptide: FVPPSGPSNPM
B67: HPAPPVTSA (peptide)
peptide: HPAPPVTSA
B68: SPYADIIPSA (peptide)
peptide: SPYADIIPSA
B69: LPLHRGDLVI (peptide)
peptide: LPLHRGDLVI
B70: APRPRLLLL (peptide)
peptide: APRPRLLLL
B71: LPPPRALTL (peptide)
peptide: LPPPRALTL
B72: RPRPPKVL (peptide)
peptide: RPRPPKVL
B73: RPGPSDPAA (peptide)
peptide: RPGPSDPAA
B74: SPARALLLALA (peptide)
peptide: SPARALLLALA

Experiments:
HLA-B*07 [1] = target: HLA-B*07 (human); test: UV peptide exchange ELISA; ++ = yield >20%
HLA-B*07 [2] = target: HLA-B*07 (human); test: UV peptide exchange ELISA; +++ = yield >50

Binder	peptide exchange yield (HLA-B*07 [1]) [%]	peptide exchange yield (HLA-B*07 [2]) [%]
B1	20 to 50	–
B2	20 to 50	–
B3	–	50 to 75
B4	–	50 to 75
B5	20 to 50	–
B6	–	50 to 75
B7	–	50 to 75
B8	20 to 50	–
B9	–	50 to 75
B10	20 to 50	–
B11	–	50 to 75
B12	20 to 50	–
B13	–	50 to 75
B14	–	50 to 75
B15	–	50 to 75
B16	–	50 to 75
B17	–	50 to 75
B18	–	50 to 75
B19	20 to 50	–
B20	–	50 to 75
B21	20 to 50	–
B22	–	50 to 75
B23	–	50 to 75
B24	–	50 to 75
B25	–	50 to 75

Binder	peptide exchange yield (HLA-B*07 [1]) [%]	peptide exchange yield (HLA-B*07 [2]) [%]
B26	–	50 to 75
B27	–	50 to 75
B28	–	50 to 75
B29	–	50 to 75
B30	20 to 50	–
B31	–	50 to 75
B32	–	50 to 75
B33	–	50 to 75
B34	–	50 to 75
B35	20 to 50	–
B36	–	50 to 75
B37	20 to 50	–
B38	–	50 to 75
B39	–	50 to 75
B40	–	50 to 75
B41	–	50 to 75
B42	–	50 to 75
B43	–	50 to 75
B44	–	50 to 75
B45	–	50 to 75
B46	–	50 to 75
B47	–	50 to 75
B48	–	50 to 75
B49	20 to 50	–
B50	–	50 to 75

Binder	peptide exchange yield (HLA-B*07 [1]) [%]	peptide exchange yield (HLA-B*07 [2]) [%]
B51	–	50 to 75
B52	–	50 to 75
B53	–	50 to 75
B54	–	50 to 75
B55	–	50 to 75
B56	–	50 to 75
B57	–	50 to 75
B58	–	50 to 75
B59	–	50 to 75
B60	–	50 to 75
B61	–	50 to 75
B62	–	50 to 75
B63	–	50 to 75
B64	–	50 to 75
B65	–	50 to 75
B66	20 to 50	–
B67	–	50 to 75
B68	–	50 to 75
B69	–	50 to 75
B70	–	50 to 75
B71	–	50 to 75
B72	–	50 to 75
B73	–	50 to 75
B74	–	50 to 75
